{"source": "paper PMC11289409", "about": "“Coupling sensor to enzyme in the voltage sensing phosphatase” (Nature Communications, 2024)", "target": "the molecule itself", "test": "cryo-EM structure; Dr-VSP (C302S) in MSP2N2 lipid nanodiscs (Dr-VSP:MSP2N2:lipid 1:4:400), 20 mM Tris, 150 mM NaCl, 5 mM EGTA, pH 8, 5.6 mg/ml; class of particles with the cytoplasmic domain as a dimer, 3.0 Å", "data": [{"protein": "Danio rerio voltage-sensing phosphatase (Dr-VSP) with the active site cysteine mutated to serine (C302S) (enzyme, UniProt Q4V9E4 1-511, looked up, Danio rerio voltage-sensing phosphatase (Dr-VSP), full-length construct in a modified pPICZ-B vector, with C302S; only the cytoplasmic domain is resolved in the dimer map; The methods name the full-length Dr-VSP construct; also called Dr-VSP (C302S); Danio rerio VSP C302S; not shown: eGFP, C-terminal, cleaved; His10, C-terminal, cleaved) MTSVHFNPGLDSKEVNGNSVKEEAEVQIDDGKEETKDPDTMYHQVRKKITPFVMSFGFRVFGLVLIILDIIMVIVDLSLSEKSRDVGGAPETVSLVISFFFLIDVLLRVYVEGFKVYFSSKLNIVDACIVVITLVVTMIYAFSDFSGASLIPRVVTFLRSLRILILVRIFRLASQKRELEKVTRRMVSENKRRYQKDGFDLDLTYVTERVIAMSFPSSGKQALYRNPIREVVRFLDTKHMDHYKVFNLCSEKGYDPKFFHYRVERVMIDDHNVPSLDDMLRYTACVRDWMAADSRNVIAIHSKGGKGRTGTMVCTWLIDSDQFESAQESLDYFGERRTDKSMSSKFQGVETPSQSRYVGYYEIMKNQYNRQLPPRKSLKIKSIRIHSIAGVGKGNGSDLKLKIIVKHELVFQCVCAKQHNCTVFPDTGSNAVVISLQDGPIVTGDVKVMFESSAGLPKGYEDCPFYFWFNTSFVENYRLFLSREELDNPHKPKTWDIYKEDFGVTLSFTEP", "values": [{"measurement": "stoichiometry N", "result": 2}]}]}
